B1: Azoarcus group I ribozyme (parent)
chain: GUGCCUUGCGCCGGGAAACCACGCAAGGGAUGGUGUCAAAUUCGGCGAAACCUAAGCGCCCGCCCGGGCGUAUGGCAACGCCGAGCCAAGCUUCGGCGCCUGCGCCGAUGAAGGUGUAGAGACUAGACGGCACCCACCUAAGGCAAACGCUAUGGUGAAGGCAUAGUCCAGGGAGUGGCGAAAGUCACACAAACCGG

The variants in this data set derive from B1. Kind of data set: reverse-splicing fitness (ratio to wild type); higher = more active; in vitro selection; Mg2+ level not given. The gist of the method: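 An in vitro group I ribozyme library with randomized positions was T7-transcribed and gel-purified. In triplicate, 10 pmol RNA in EPPS pH 7.5 was reacted with 50 pmoles of a 30-nt RNA substrate for 1 h at 37 °C across several added MgCl2 levels (1–48 mM), then stopped with EDTA. Products were reverse transcribed from a substrate-complementary primer, PCR-amplified and sequenced (HiSeq 4000). Fitness is a variant's read proportion after selection over that before, normalised to wild type.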
Take GUGCCUUGCGCCGGGAAACCACGCAAGGGAUGGUGUCAAAUUCGGCGAAACCUAAGCGCCCGCCCGGGCGUAUGGCAACGCGGAGCCAAGCUUCGGCGCCUGCGCCGAUGGAGGUGUAGAGACUAGACGGCACCCACCUAAGGCGAACGGUAUGGUGAAGGCAUAGUCGAGGGAGUGGCGAAAGUCACACAAACCGG [C82G A111G A145G C150G C169G]: the reverse-splicing fitness was 0.00774.

Turning to GUGCCUUGCGCCGGGAAACCACGCAAGGGAUGGUGUCAAAUUCGGCGAAACCUAAGCGCCCGCCCGGGCGUAUGGCAACGCGGAGCCAAGCUUCGGCGCCUGCGCCGAUGGAGGUGUAGAGACUAGACGGCACCCACCUAAGGCGAACGGUAUGGUGAAGGCAUAGUCUAGGGAGUGGCGAAAGUCACACAAACCGG [C82G A111G A145G C150G C169U], the reverse-splicing fitness was 0.0102.

Consider GUGCCUUGCGCCGGGAAACCACGCAAGGGAUGGUGUCAAAUUCGGCGAAACCUAAGCGCCCGCCCGGGCGUAUGGCAACGCGGAGCCAAGCUUCGGCGCCUGCGCCGAUGGAGGUGUAGAGACUAGACGGCACCCACCUAAGGCGAACGGUAUGGUGAAGGCAUAGUCUAGGGAGCGGCGAAAGUCACACAAACCGG [C82G A111G A145G C150G C169U U176C], for which the reverse-splicing fitness is 0.0131.

In the case of GUGCCUUGCGCCGGGAAACCACGCAAGGGAUGGUGUCAAAUUCGGCGAAACCUAAGCGCCCGCCCGGGCGUAUGGCAACGCGGAGCCAAGCUUCGGCGCCUGCGCCGAUGGAGGUGUAGAGACUAGACGGCACCCACCUAAGGCGAACGGUAUGGUGAAGGCAUAGUCUAGGGAGGGGCGAAAGUCACACAAACCGG [C82G A111G A145G C150G C169U U176G], the reverse-splicing fitness was 0.00803.

As to GUGCCUUGCGCCGGGAAACCACGCAAGGGAUGGUGUCAAAUUCGGCGAAACCUAAGCGCCCGCCCGGGCGUAUGGCAACGCGGAGCCAAGCUUCGGCGCCUGCGCCGAUGGAGGUGUAGAGACUAGACGGCACCCACCUAAGGCGAACGGUAUGGUGAAGGCAUAGUCUAGGGAGAGGCGAAAGUCACACAAACCGG [C82G A111G A145G C150G C169U U176A], the reverse-splicing fitness stood at 0.012.

On to GUGCCUUGCGCCGGGAAACCACGCAAGGGAUGGUGUCAAAUUCGGCGAAACCUAAGCGCCCGCCCGGGCGUAUGGCAACGCGGAGCCAAGCUUCGGCGCCUGCGCCGAUGGAGGUGUAGAGACUAGACGGCACCCACCUAAGGCGAACGGUAUGGUGAAGGCAUAGUCCAGGGAGUGGCGAAAGUCACACAAACCGG [C82G A111G A145G C150G], for which the reverse-splicing fitness is 0.0374.

GUGCCUUGCGCCGGGAAACCACGCAAGGGAUGGUGUCAAAUUCGGCGAAACCUAAGCGCCCGCCCGGGCGUAUGGCAACGCGGAGCCAAGCUUCGGCGCCUGCGCCGAUGGAGGUGUAGAGACUAGACGGCACCCACCUAAGGCGAACGGUAUGGUGAAGGCAUAGUCCAGGGAGAGGCGAAAGUCACACAAACCGG [C82G A111G A145G C150G U176A]: the reverse-splicing fitness worked out at 0.0145.

Take GUGCCUUGCGCCGGGAAACCACGCAAGGGAUGGUGUCAAAUUCGGCGAAACCUAAGCGCCCGCCCGGGCGUAUGGCAACGCGGAGCCAAGCUUCGGCGCCUGCGCCGAUGGAGGUGUAGAGACUAGACGGCACCCACCUAAGGCGAACGGUAUGGUGAAGGCAUAGUCCAGGGAGGGGCGAAAGUCACACAAACCGG [C82G A111G A145G C150G U176G]: the reverse-splicing fitness is 0.00812.

Take GUGCCUUGCGCCGGGAAACCACGCAAGGGAUGGUGUCAAAUUCGGCGAAACCUAAGCGCCCGCCCGGGCGUAUGGCAACGCGGAGCCAAGCUUCGGCGCCUGCGCCGAUGGAGGUGUAGAGACUAGACGGCACCCACCUAAGGCGAACGGUAUGGUGAAGGCAUAGUCCAGGGAGCGGCGAAAGUCACACAAACCGG [C82G A111G A145G C150G U176C]: the reverse-splicing fitness worked out at 0.026.

As for GUGCCUUGCGCCGGGAAACCACGCAAGGGAUGGUGUCAAAUUCGGCGAAACCUAAGCGCCCGCCCGGGCGUAUGGCAACGCGGAGCCAAGCUUCGGCGCCUGCGCCGAUGGAGGUGUAGAGACUAGACGGCACCCACCUAAGGCGAACGGUAUGGUGAAGGCAUAGUCAAGGGAGAGGCGAAAGUCACACAAACCGG [C82G A111G A145G C150G C169A U176A], the reverse-splicing fitness stood at 0.015.

On to GUGCCUUGCGCCGGGAAACCACGCAAGGGAUGGUGUCAAAUUCGGCGAAACCUAAGCGCCCGCCCGGGCGUAUGGCAACGCGGAGCCAAGCUUCGGCGCCUGCGCCGAUGGAGGUGUAGAGACUAGACGGCACCCACCUAAGGCGAACGGUAUGGUGAAGGCAUAGUCAAGGGAGCGGCGAAAGUCACACAAACCGG [C82G A111G A145G C150G C169A U176C], for which the reverse-splicing fitness is 0.0146.

On to GUGCCUUGCGCCGGGAAACCACGCAAGGGAUGGUGUCAAAUUCGGCGAAACCUAAGCGCCCGCCCGGGCGUAUGGCAACGCGGAGCCAAGCUUCGGCGCCUGCGCCGAUGGAGGUGUAGAGACUAGACGGCACCCACCUAAGGCGAACGGUAUGGUGAAGGCAUAGUCAAGGGAGGGGCGAAAGUCACACAAACCGG [C82G A111G A145G C150G C169A U176G], for which the reverse-splicing fitness is 0.0094.

GUGCCUUGCGCCGGGAAACCACGCAAGGGAUGGUGUCAAAUUCGGCGAAACCUAAGCGCCCGCCCGGGCGUAUGGCAACGCGGAGCCAAGCUUCGGCGCCUGCGCCGAUGGAGGUGUAGAGACUAGACGGCACCCACCUAAGGCGAACGAUAUGGUGAAGGCAUAGUCAAGGGAGGGGCGAAAGUCACACAAACCGG [C82G A111G A145G C150A C169A U176G]: the reverse-splicing fitness was 0.00692.

In the case of GUGCCUUGCGCCGGGAAACCACGCAAGGGAUGGUGUCAAAUUCGGCGAAACCUAAGCGCCCGCCCGGGCGUAUGGCAACGCGGAGCCAAGCUUCGGCGCCUGCGCCGAUGGAGGUGUAGAGACUAGACGGCACCCACCUAAGGCGAACGAUAUGGUGAAGGCAUAGUCAAGGGAGAGGCGAAAGUCACACAAACCGG [C82G A111G A145G C150A C169A U176A], the reverse-splicing fitness turned out to be 0.0234.

For the variant GUGCCUUGCGCCGGGAAACCACGCAAGGGAUGGUGUCAAAUUCGGCGAAACCUAAGCGCCCGCCCGGGCGUAUGGCAACGCGGAGCCAAGCUUCGGCGCCUGCGCCGAUGGAGGUGUAGAGACUAGACGGCACCCACCUAAGGCGAACGAUAUGGUGAAGGCAUAGUCAAGGGAGCGGCGAAAGUCACACAAACCGG [C82G A111G A145G C150A C169A U176C], the reverse-splicing fitness is 0.0222.

The record behind these values is the RNAGym collection of RNA variant scans (doi:10.1093/molbev/msab373).
